Substrate in the data set: O=[N+]([O-])c1ccc(O[C@@H]2OC[C@@H](O)[C@H](O)[C@H]2O)cc1
Briefly: purified protein. Conditions: 50 mM sodium citrate, 150 mM NaCl, pH 5.0, 75 °C, 0.05 to 2.4 mM pNPX. The format is biochemical, Caldicellulosiruptor owensensis.

Km, Vmax and kcat data for one protein are collected here from publication PMC4134300, “Biochemical Characterization of Two Thermostable Xylanolytic Enzymes Encoded by a Gene Cluster of Caldicellulosiruptor owensensis” (PLoS ONE, 2014).

B1: Coxyl A (Caldicellulosiruptor owensensis OL) (protein)
chain: MKIELYPEKTSGKINKFWTKCVGSCHAATALREDWRRQLRKCRQELGFEYLRCHGWLNDDMSVCFRNEDGKLWFSFFNIDTIIDFLLDIGMKPFIELSFMPEALASGTKTVFHYKGNITPPKSYEEWGQLVEELARHLVKRYGKNEVKEWFFEVWNEPNLKDFFWAGTMEEYFELYKHAAFAIKKVDPDLKVGGPASAIDAWIPELKEFCEKNNVPIDFISTHQYPTDLAFSTSSNMEEAMAKAKRGELADRVKKAIEEASPLPVYYTEWNNSPSPRDPYHDIPYDAAFIVKTIIDIVDLPLGCYSYWTFTDIFEECGQSSLPFHGGFGLLNIHGIPKPSYRAFQILDKLNGEKINAEAEDISPTIDFIATKNNNEIVLIISNHNVPLSPIENENILVTVNGLKGCKEISIERIDEYNANPKRKWVEMGSPEYLNKDQIEELIEASKPKKEVVSWRITGDNQLAFELNILPHSVLGVTIKTE
notes: His-tagged in pET-28b(+), E. coli BL21(DE3); homodimer
The term Km denotes the concentration of substrate that gives half-maximal velocity. As a reminder, the Vmax is the rate approached at saturating substrate. As a reminder, the kcat is the number of substrate molecules converted per active site and unit of time at saturation. As for B1, the Km stood at 1600 ± 100 µM, the Vmax stood at 3930 µmol/min/mg and the kcat amounted to 3630 ± 122 s⁻¹.
